The source of these data is US20220403048A1 (CANCER RESEARCH TECHNOLOGY, published 2022).

As usually defined, the Kd is the free concentration of one partner at which half of the binding sites on the other are occupied at equilibrium, for simple one-to-one binding. In general, koff refers to the rate constant with which the complex falls apart. By kon is commonly meant a measure of how fast the partners come together.

Numbering of substitutions follows the chain as printed.

The labels stand for the following.
T1: THP-1 lysate derived human trimeric ARG2 (human, UniProt P78540 23-354, limits assumed)
T1 sequence (looked up): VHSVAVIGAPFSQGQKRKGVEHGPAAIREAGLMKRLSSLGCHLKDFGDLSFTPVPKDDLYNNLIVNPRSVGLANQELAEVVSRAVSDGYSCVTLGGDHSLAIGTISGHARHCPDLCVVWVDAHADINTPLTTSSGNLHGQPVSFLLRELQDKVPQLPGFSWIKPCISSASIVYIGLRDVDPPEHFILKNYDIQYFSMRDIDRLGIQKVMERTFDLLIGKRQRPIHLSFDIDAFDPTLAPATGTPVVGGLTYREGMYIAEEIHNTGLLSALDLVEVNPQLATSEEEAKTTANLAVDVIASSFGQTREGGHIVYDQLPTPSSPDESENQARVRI

T2: recombinant human trimeric ARG2 enzyme (construct not given) (human, UniProt P78540 23-354)
T2 sequence (looked up): T1 sequence (looked up)

T3: recombinant human monomeric ARG2 (human, UniProt P78540 23-354)
T3 sequence (looked up): T1 sequence (looked up) with E253Q

T4: biotinylated recombinant human trimeric ARG1 enzyme (Avi-huARG1-His10) (human, UniProt P05089 1-322, biotinylated in HTRF and streptavidin BLI assays)
T4 construct: also called Human ARG1; recombinant ARG1
T4 sequence: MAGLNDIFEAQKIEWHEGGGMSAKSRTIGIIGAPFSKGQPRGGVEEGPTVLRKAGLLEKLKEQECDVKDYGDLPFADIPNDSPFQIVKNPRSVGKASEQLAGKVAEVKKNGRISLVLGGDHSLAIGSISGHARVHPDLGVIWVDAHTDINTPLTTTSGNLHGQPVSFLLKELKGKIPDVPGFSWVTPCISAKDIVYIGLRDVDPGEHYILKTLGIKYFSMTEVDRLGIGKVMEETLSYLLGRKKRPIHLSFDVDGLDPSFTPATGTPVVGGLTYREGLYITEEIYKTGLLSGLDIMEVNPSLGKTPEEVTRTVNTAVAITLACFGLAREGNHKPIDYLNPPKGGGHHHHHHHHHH

T5: biotinylated recombinant human trimeric ARG2 enzyme (Avi-huARG2-His10) (human, UniProt P78540 23-354, biotinylated)
T5 construct: also called avi-Arg2-His10; bio-ARG2
T5 chain: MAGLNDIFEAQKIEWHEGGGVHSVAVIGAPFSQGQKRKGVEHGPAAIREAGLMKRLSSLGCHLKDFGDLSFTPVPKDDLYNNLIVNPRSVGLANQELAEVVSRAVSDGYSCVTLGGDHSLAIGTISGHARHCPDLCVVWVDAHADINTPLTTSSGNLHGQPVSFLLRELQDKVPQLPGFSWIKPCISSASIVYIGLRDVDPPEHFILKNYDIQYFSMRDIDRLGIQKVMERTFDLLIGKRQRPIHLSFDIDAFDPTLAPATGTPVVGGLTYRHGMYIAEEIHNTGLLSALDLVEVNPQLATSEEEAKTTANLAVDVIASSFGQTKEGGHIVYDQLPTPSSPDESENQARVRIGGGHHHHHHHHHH

T6: biotinylated recombinant cynomolgus monkey trimeric ARG2 enzyme (Avi-cynoARG2-His10) (cynomolgus monkey, UniProt P78540 23-354 (human entry), biotinylated)
T6 construct: also called cynomolgus ARG2
T6 chain: T5 chain with A189P, R231Q, H273E, K325R, D333G

B1: C0021158 recombinant human IgG1 (antibody, V domains shown)
VH: EVQLLESGGGLVQPGGSLRLSCAASGFTFRYEVAAWVRQAPGKGLEWVSAISGPIPKGYYADSVKGRFTISRDNSKNTLYLQMNSLRAEDTAVYYCARLRADLGLYMDLWGRGTLVTVSS
VL: QSVLTQPPSVSAAPGQKVTISCSGSSSNIGNHYVSWYQQLPGTAPKLLIYDNSERTAGVPDRFSGSKSGTSATLGITGLQTGDEADYYCGTWDELTSNLVFGGGTKLTVL
B2: C0020187 recombinant human IgG1 (antibody, V domains shown)
VH: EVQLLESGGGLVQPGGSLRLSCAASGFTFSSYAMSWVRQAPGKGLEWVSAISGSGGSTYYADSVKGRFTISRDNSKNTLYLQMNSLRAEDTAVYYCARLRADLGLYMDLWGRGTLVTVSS
VL: B1 VL with T56P, A57S, V59I, E94S, L95S, T96L, N98A
B3: C0021158-fgl2 recombinant human IgG1 (antibody, V domains shown)
VH: B1 VH
VL: B1 VL with S53A, V59I
B4: C0020065 recombinant human IgG1 (antibody, V domains shown)
VH: GVNLRESGGGVVQPGRSLRLSCAASGFTFSSYAMHWVRQAPGKGLEWVAVISYDGSNKYYVDSVKGRFTISRDNSKNTLYLQMNSLRAEDTAVYYCARDSSQLWFDYWGRGTLVTVSS
VL: QSVVTQPPSVSGAPGQRVTISCTGSSSNIGTGYDVHWYQQLPGTAPKLLIYGNSNRPSGVPDRFSGSKSGTSASLAITGLQAEDEADYYCQSYDSSLSGSVVFGGGTQLTVL
B5: C0021180 Fab (Fab, V domains shown)
VH: B1 VH
VL: QSVLTQPPTVSAAPGRKVTISCSGSSSNIGDHHVSWYQQLPGAAPKLLIYDTDHMASGIPDRFSGSRSGTSATLGITGLQTGDEADYYCGTWDSSLSALVFGGGTKLTVL
notes: Human Fab
B6: C0021155 Fab (Fab, V domains shown)
VH: EVQLLESGGGLVQPGGSLRLSCEASGFTFRYDYHVWVRQAPGKGLEWVSAISGSGGSTYYADPVKGRFTISRDNSKNTLYLQMNSLRAEDTAVYYCARLRADLGLYMDLWGRGTLVTVSS
VL: B1 VL with Q1R, N52T, S53T, E54V, R55L, T56S, A57S, V59I, K106R
notes: Human Fab
B7: C0021177 Fab (Fab, V domains shown)
VH: B1 VH with I55A
VL: B1 VL with V3E, S9T, V10A, N52T, S53T, E54V, R55L, T56S, A57S, V59I
notes: Human Fab
B8: C0021158 Fab (Fab, V domains shown)
VH: B1 VH
VL: B1 VL
notes: Human Fab
B9: C0021181 Fab (Fab, V domains shown)
VH: B6 VH with Q13R, E23A, G26E, P63S, G66S
VL: B1 VL with T19A, I20V, N31S, A57S, V59I, K106R
notes: Human Fab
B10: C0020065 scFv (scFv, V domains shown)
VH: B4 VH
VL: B4 VL
notes: c-myc tagged scFv

The first experiment addresses T1, THP-1 lysate derived human trimeric ARG2. Put plainly: cell-based or functional assay.
For the molecule B1, the “THP-1 lysate ARG2 EIA IC50” value stood at 5.36 nM.

The target of a further experiment is T2, recombinant human trimeric ARG2 enzyme …. The experiment is described as follows: cell-based or functional assay.
Regarding B1, the “EC50, In Presence of rhARG2 (T cell proliferation)” value stood at 157 nM and the “Maximum % Proliferation, In Presence of rhARG2” value was determined as 90%.

A further experiment concerns the target T1, THP-1 lysate derived human trimeric ARG2. The experiment is described as follows: cell-based or functional assay. This is another data set of the same source.
In the case of B2, the “THP-1 ARG2 EIA IC50” value worked out at 649 nM.
On the same count and under the same terms, the figure for B1 is 2.3 nM.
On to B3, for which the “THP-1 ARG2 EIA IC50” value amounted to 3 nM.

Another experiment concerns the target T3, recombinant human monomeric ARG2. Put plainly: cell-based or functional assay.
Consider B4, for which the “IC50 (read off the curve)” value was ~6 nM.
B2: the “IC50 (read off the curve)” value was ~4 nM.

Another experiment addresses T4, biotinylated recombinant human trimeric …. Put plainly: BLI (OctetRED), His-tagged ligand on anti-His surface.
On to B5, for which the binding result is on record as “no binding (tested: up to 120 nM Fab)”.
With B6, the binding result is on record as “no binding (tested: up to 120 nM Fab)”.
The same measure, in the same setting: the entry for B7 is “no binding (tested: up to 120 nM Fab)”; for B8 it is “no binding (tested: up to 120 nM Fab)”; for B9 it is “no binding (tested: up to 120 nM Fab)”.

Another experiment addresses T5, biotinylated recombinant human trimeric …. Put plainly: BLI (OctetRED) extended assay, bio-ARG2 on streptavidin, Fab as analyte, 1:1 fit. Here is the method:
(§1) The affinities of the second-generation antibodies to human ARG2 were measured on the OctetRED system. A screening assay which stably captures His-tagged ARG2 as the ligand on an anti-His surface was utilised to screen the second-generation candidates as Fabs at an analyte range of 1.8 to 120 nM, with an association time of 5 minutes and a dissociation time of 10 minutes. Sensors were regenerated using 10 mM glycine pH 1.5 after each cycle. Based on this assay, six candidates with estimated affinities in the sub-nanomolar range were identified, and they were further profiled using an extended assay which is more suitable for antibodies of high affinities. In the extended assay, the association and dissociation times were extended to 10 and 40 minutes respectively, using a lower Fab analyte titration range of 0.47 to 30 nM, on a streptavidin surface which captures bio-ARG2 as the ligand. The sensorgrams were reference subtracted and fitted to the 1:1 binding model to estimate their binding affinities using the Octet analysis software.
B5: the Kd is 0.437 nM, the koff was 0.000122 s⁻¹ and the kon was 278000 M⁻¹ s⁻¹.
In the case of B6, the Kd was determined as 0.358 nM, the koff was determined as 5.67e-05 s⁻¹ and the on-rate (kon) came out at 159000 M⁻¹ s⁻¹.
On the same counts, the results for B7 are 0.173 nM, 3.51e-05 s⁻¹ and 202000 M⁻¹ s⁻¹.
As for B8, the equilibrium dissociation constant (Kd) worked out at 0.173 nM, the koff amounted to 4.54e-05 s⁻¹ and the kon was 262000 M⁻¹ s⁻¹.
On the same counts, the results for B9 are 0.288 nM, 4.17e-05 s⁻¹ and 145000 M⁻¹ s⁻¹.

Another experiment deals with T4, biotinylated recombinant human trimeric …. Put plainly: HTRF direct binding assay, biotinylated recombinant human trimeric ARG1. A general note: TR-FRET usually uses a lanthanide donor and a delayed reading to cut background.
Take B10: the binding result is “no binding (tested: log M -6 (1e-6 M))”.

The target of another experiment is T6, biotinylated recombinant cynomolgus …. Put plainly: BLI (OctetRED) extended assay, biotinylated cyno ARG2 on streptavidin, Fab as analyte, 1:1 fit. The procedure:
as §1
The affinities of some of these antibodies to cynomolgus ARG2 were determined using the same assay, and the derived kinetic parameters are shown in Table 21.
On to B5, for which the Kd was 0.353 nM, the koff is 0.000135 s⁻¹ and the kon amounted to 381000 M⁻¹ s⁻¹.
In the case of B7, the Kd worked out at 0.0754 nM, the koff worked out at 3.12e-05 s⁻¹ and the on-rate (kon) worked out at 414000 M⁻¹ s⁻¹.
As to B8, the Kd came out at 0.108 nM, the koff turned out to be 4.64e-05 s⁻¹ and the kon worked out at 429000 M⁻¹ s⁻¹.
On the same counts, the results for B9 are 0.173 nM, 4.43e-05 s⁻¹ and 257000 M⁻¹ s⁻¹.

The next experiment has the same target. The experiment is described as follows: HTRF direct binding assay, biotinylated recombinant cynomolgus trimeric ARG2, streptavidin cryptate and anti-c-myc-XL665, Delta F %.
As to B10, the binding result was “binds”.
